Patent publication US11219695

Legend:
[1] = tested on: ZFN SBS 47171 (left/right albumin ZFN, FokI fusion) (synthetic construct); assay: cell_activity; conditions: ZFN pair with P2; HepG2/C3A, 300K/600K vg/cell, donor A; 39.81% with donor B; half-site not stated
[2] = tested on: ZFN SBS 47898 (also printed as SB 47931 in the transduction method) (synthetic construct); assay: cell_activity; conditions: ZFN pair with P1; HepG2/C3A, 300K/600K vg/cell, donor A; partner named 47898 or 47931 in text; half-site not stated

GCACTAAGGAAAGTGCAAAGTAACTTAGAGTGACTGAAACTTCACAGAATAGGGTTGAAGATTGAATTCATAACTATCCCAAAGACCTATCCATTGCACTATGCTTTATTTAAAAACCACAAAACCTGTGCTGTTGATCTCATAAATAGAACTTGTATTTATATTTATTTTCATTTTAGTCTGTCTTCTTGGTTGCTGTTGATAGACACTAAAAGAGTATTA (double strand)
activity [1]: 43.5 % indels
activity [2]: 43.5 % indels
